According to patent publication US20240327869, “SYNTHETIC GENETIC ELEMENTS FOR BIOMANUFACTURE” (JANSSEN BIOTECH, INC., published 2024):

T1: SR21 serine recombinase (Serine Recombinase 21) (Bacillus safensis strain CCMA-560)
T1 chain: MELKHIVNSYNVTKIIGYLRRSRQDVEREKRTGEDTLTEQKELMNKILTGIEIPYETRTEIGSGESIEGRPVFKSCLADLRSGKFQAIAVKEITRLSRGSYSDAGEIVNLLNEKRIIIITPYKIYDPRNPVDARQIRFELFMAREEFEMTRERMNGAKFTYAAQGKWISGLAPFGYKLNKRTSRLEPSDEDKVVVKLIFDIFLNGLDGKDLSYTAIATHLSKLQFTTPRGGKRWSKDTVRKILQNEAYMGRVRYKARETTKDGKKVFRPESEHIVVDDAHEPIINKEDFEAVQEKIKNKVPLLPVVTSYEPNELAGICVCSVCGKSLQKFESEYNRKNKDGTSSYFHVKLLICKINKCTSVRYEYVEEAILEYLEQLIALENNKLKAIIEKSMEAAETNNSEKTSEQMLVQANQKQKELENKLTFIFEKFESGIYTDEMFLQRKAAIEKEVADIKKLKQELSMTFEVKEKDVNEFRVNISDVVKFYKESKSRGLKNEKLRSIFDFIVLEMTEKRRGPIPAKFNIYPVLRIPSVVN

B1: SR21 attP (dsDNA)
DNA 1: AATTAAGTATCATGATAAACTGACAAAGCGGTATATCAAGATACTTAATA
DNA 2: TATTAAGTATCTTGATATACCGCTTTGTCAGTTTATCATGATACTTAATT
B2: SR21 attB (Fairview) (dsDNA)
DNA 1: CGTCAACATCTCCACTGACAAAGCGGTTTCTCCAACGAAT
DNA 2: ATTCGTTGGAGAAACCGCTTTGTCAGTGGAGATGTTGACG

Tests used:
[1] = molecular target: T1, SR21 serine recombinase (Serine …); test: cell_activity; attP x attB (SEQ 9) inversion reporter P41 in HEK293, fold increase in fLUC over reporter alone, 37 C 48 h; settings: tags: untagged; expressed from CMV promoter plasmid P175 or Ad5-CMV-SR21
Description: (§1) To measure SR21 recombinase activity in human cells, 75,000 HEK293 cells were plated into each well of 96-well tissue culture plates in 100 μl of high-glucose DMEM+10% Fetal Bovine Serum. The recombinase reporter plasmid (P041) ±the SR21 Recombinase expression plasmid (P175)+deoxynucleotides (to normalize DNA amounts) were complexed with Fugene-HD transfection reagent in OptiMEM medium for 15 minutes at room temperature as shown in Table 1 and transfected into triplicate wells of the plated cells. Plates were incubated at 37° C. for 48 hours.
(§2) Firefly Luciferase (fLUC) and Renilla luciferase (rLUC) was assayed sequentially in transfected wells using the Dual Glo assay kit from Promega. Medium was removed from the transfected wells of the tissue culture plate and 100 μl of a 1:1 mixture of DMEM medium (without phenol red) and the Dual Glo luciferase+ fLUC substrate was added. The plate was incubated at room temperature for 10 minutes. The lysate was transferred to an opaque white 96-well plate. fLUC activity was measured using the Envision multilabel reader. Next, 50 μl per well of the Stop-and-Glo buffer+Renilla substrate was added and the plate was incubated with gentle shaking for 10 minutes. The Renilla luciferase signal was read on the same Envision reader.

[2] = molecular target: T1, SR21 serine recombinase (Serine …); test: cell_activity; attB partner of attP (SEQ 7) in inversion reporter P41, HEK293, fold increase in fLUC over reporter alone; settings: tags: untagged; expressed from CMV promoter plasmid P175 or Ad5-CMV-SR21
Description: as §1, §2

Binder | activity [1] | activity [2]
B1 | 1540 fold | 
B2 |  | 1540 fold
